From patent publication US20090282582A1, “ENVIRONMENTAL STRESS RESPONSIVE PROMOTER AND METHOD OF TISSUE-SPECIFIC GENE EXPRESSION USING THE SAME” (RIKEN, priority 2006, published 2009)

What was measured:
[1] = test system: Arabidopsis thaliana (columbia ecotype) plant body; experiment: full-length cDNA microarray analysis of gene expression levels after environmental stress application; conditions: in vivo
How it was run: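 Three-week-old Arabidopsis grown at 22° C. on a 16 h light/8 h dark cycle were stressed by 4° C. cold, 2 h open-plate dehydration, or root application of MS medium containing 250 mM NaCl or 100 μM ABA. Total RNA/mRNA from stressed and unstressed plants was reverse transcribed with Cy3/Cy5 dUTP and hybridized to full-length cDNA microarrays.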

[2] = test system: transgenic Arabidopsis thaliana plant body (luciferase reporter gene); experiment: luciferase assay of promoter::LUC transgenic plants after environmental stress application; type: in vivo; conditions: for activity to induce gene expression compared with other promoters: in vivo; for Tissue allowing specific induction: summary over stress types
How it was run: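 Arabidopsis lines carrying promoter::luciferase, 10 days after sowing on MS agar, sprayed with 1 mM luciferin (0.01% Triton-X), 5 min dark, imaged by ARGUS before stress. Stresses: 4° C, 2 h air dehydration, 250 mM NaCl or 100 μM ABA to roots; luminescence at 2, 5, 10 h.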

| Molecule | Environmental stress type to which the promoter responds [1] | Tissue in which specific induction of expression is realized ([2]; Salt stress (250 mM NaCl)) | Tissue in which specific induction of expression is realized ([2]; Salt stress (250 mM NaCl), listed as promoter of RAFL09-07-M01) | activity to induce gene expression compared with other promoters [2] | Tissue allowing specific induction [2] | Tissue in which specific induction of expression is realized ([2]; ABA stress (100 μM ABA)) | Tissue in which specific induction of expression is realized ([2]; ABA stress (100 μM ABA), listed as promoter of RAFL08-17-O07) |
| --- | --- | --- | --- | --- | --- | --- | --- |
| Promoter of RAFL09-07-M01: environmental stress responsive promoter DNA, SEQ ID NO: 7, upstream of At4g20830 (protein containing FAD-binding domain) (nucleic acid, listed as Arabidopsis thaliana) DNA: AGGTGCAGGAGATTGAATCGAAGCTTCGTTTATAAAACAATGTACATAGTTGTTTAAAGTCTTAAAGTTGGACTTTTCTTTTGCTCAGCCCCACAAACCCAATTGGATTATAATACCGACGCCGACCAATCAATGCTACGACCATTGACTTATAAAACATACATCGGACACACACAAAAAAAAACTACACTTTTTGTATCAGCAATCTTTTTAGTTATTTGTTTTCAGTTATATAAATCAATGTTTGTGTTTTCTAATAACAGTTATTAGTATGCTAGTGATGCATGGTTAAAAAAAAAAAAAGAAATTTCAAATATATATTTTAATTTGCATTATGTAAAATATTTTAAAAATAAGTCCCTAGTACCAATGGAGTGTTTTTGTTTAAGCTACAAGTGAATTATAATACGTAGTAATCTTGATTCAAATGGAAAGATTTACCATGTGGGTCTATACCAAAACCGTGTCCTTTTTCATATGTATGAATCTCTAATAGTTGCTTCTTTTGACTAGAATAATTTGTAAAGTAACTCCTAATTCATAAATATTGAAGATTAGTCTGATTTATTATTAATATGCAAATCTCTGATTAATAAGAAATAAATTATAATAGAAATATTGATGTGTACTGATCATCTTTTAATAAATGTTTGAGACTACAAATACTATAATGAATCAAATGAACATAAATGTATAGATGAACTGAATAAAATTCCAGATACACCTTGAATTAAATATGTATTCATAGTATTTTTTTTTAAAATGAAATCTGGATTTTAAATCCTTATTATTCAAAAAAATCTTCTCCTTTGATATTTTTGCTATAACAAATTAAAATAAAATCTGTAATCACTAATCATATCCCTTAACTCCCTTTAATATCTTTTGTTGACCAAAACAAATATTTTTTTGTTATATGCAACGAATAAAAAAACATTGAAAGTACTTTCCAAAAACAAAACACGTCTTCTTCTCCCTGCGGTTATAAATAGACACGGATAAGTACAAAGAACAGAGGAACACGAGACCCAAGAAAAAGATCTCAAA | Dehydration and salt | Stem and leaf tissue and root tissue | stem and leaf tissue and root tissue | lower than that of other promoters | Stem and leaf tissue and root tissue | – | – |
| Promoter of RAFL08-17-O07: environmental stress responsive promoter DNA, SEQ ID NO: 8, upstream of At2g29450 (glutathione S-transferase) (nucleic acid, listed as Arabidopsis thaliana) DNA: CGGTGGCAAAACAATTGGATTTTTGGACTTGGTCGCAGGAAGTATGATCCCGTTTTGTCTTGCTCGAGGTTGGGAAGGTATGGGAATTGATATGATTCCAGAGGAAAAGTTTCCAGAGCTAAACAGATGGATCAAAAATTTGAAAGAAATTGAGATCGTGAGAGAATGTATTCCTCCTAGAGAGGAACAAATTGAGCATATGAAGAAAGTTGTAGAAAGAATCAAATCAGCCTAAGAGACAACAATGATACTCTTCGATCAGTAGATGTTAACTATATGTTTGTGTAATCTTGTTATAATAGTTTGTATGAACAATAAATGAAACATTTGTATGAACAATTAGTGTTTTTACTAAATTCTAATGTCAATTAATTATTATAAACATTTTAAATGTAGTAGTATTCAATTTCTTACAAATCATAAGAAATTGGTTCATAAACCTGGAGTTTTCATATGAAAGAAAAGTAGATAAAAGCTATAATTTAGTCAAACCATCCTTCTTAATAAAACCACAACTATGATTAAATGTGAACATGTATTTCGACACGTAAGAAGTTGTGTAAACAGAGGAAAGTACAACGGACATGTGGGTCTATTTGTTGCGGCACAATATAACAAATTTCTTTAGTATATTTTTAGTATCGTGAGGTGGTGAGTCTTGTAACCATAGAAAATTCACCGATACTTTATAACATTGTTGGAAGGAAAATTCAGCAAACAAGTTCGTAGATGGAGAAACGGAAAAACCAACGCCTATTATAACAACAACATTTTTAATATATGCCAAAAGGAACATCAAATAACAGATTAGTACTAATTCTTTTTTTATAGCTCAGACTATAGAGTTGTTTGTTTTCTTGGGCGTCAATATAACAAACGAGAATGACAAATGGTTTTAAAGCTGTTGATGTTTCATACACAGACAAAATGGATCAATTATGAAGAACCACGATAAAGTGATGGGTATAATTGGGGAAGCAGAAGAAATTCTTGACGAAGCATGGGGTTGTCTTCAGAAAATGAATGGATCAAGTCAAGGTACACATGCTCCAGGGATAAGGCAAGGTTAGGAATTAGGACACATCTCCACTTACTAAAAAAGAGATAAAAAAAAATTATAAAGGGAACGTTATAAATATGTTGTAAAGTCAACATCTGTTTCCTTCTAGACTCTTCGCATTTACATCACACTGCCGACCATATAAAACGGCAAAGTTCGTCGTCGTTTTATCACAAGACCATCAACACCATAAGGCTATAAATCCAAGCTAAAAGGTAGTGATTAACTCCACAAAACCAGAAAAAACTACATTTCTAACATATAGAAGAAACAGAGAAAAAGAGAGAGAGACCCCTA | Dehydration and salt | – | – | lower than that of other promoters | Root tissue | Root tissue | root tissue |
